Laboratory results taken from patent publication US9603896B2, “Peptide compounds and methods of production and use thereof” (priority 2012, dated 2017).
Ends that are not written are not given here.

What was measured:
[1] = test system: Pseudomonas clinical isolate B64; assay: BIOSCREEN C™ growth assay, antibiotic and peptide combinations; assay type: cell-based, Pseudomonas aeruginosa
Protocol: Cefotaxime (Cefo) and peptide combinations included a constant amount of Cefotaxime (2.81 μg/ml) with suboptimal amounts of peptide (0, 0.34, 1.01, and 3.04 μg/ml).
The peptide and antibiotics were set up in the wells of the microtiter plate at starting ratios of MIC equivalents of antibiotic:peptide at 3:1, 1:1, and 1:3. They were serially diluted to concentrations well below suboptimal/sublethal levels of the antibiotic and peptide. The organism was added (1×10^5 CFU/well), the BIOSCREEN C™ assay (Growth Systems USA, Piscataway, N.J.) was performed, and data was collected over 24 hours.

[2] = assay type: physicochemical
Excerpt: In the initial stages of the work leading to the presently disclosed and claimed inventive concept(s), sequential addition of amino acids was used to make the peptides. Three candidate peptides (CAP3720-44 (SEQ ID NO:1), CAP3720-44ser26 (SEQ ID NO:2), and CAP3720-44ser42 (SEQ ID NO:5)) were synthesized. […] In one embodiment, a fragment Fmoc condensation strategy was used rather than sequential addition of amino acids. In the fragment condensation method, three small fragments were made and condensed together to form a CAP3720-44ser42 amino acid sequence (SEQ ID NO:5). The rationale behind this reasoning was that three small fragments could be synthesized in a highly purified form and linked together, thereby overcoming some of the aggregation problems. The product from this synthesis was dialyzed against 1% acetic acid and lyophilized and determined to be approximately 50% pure. Antimicrobial activity of this peptide was approximately half of what was normally obtained. In one embodiment, the dialysis procedure was changed to employ a dilute tri-fluoro acetic acid (TFA) solution (e.g., 0.1%), which obtained a product with stronger antimicrobial activity and greater purity (about 80%). In the next production, a cysteine residue was used that was protected during synthesis and then de-protected in the final stages of purification, in an attempt to improve stability.
When the arginines were linked to the peptide to form the peptide backbone (SEQ ID NOs: 18-20), there was marked increase in solubility of the peptides and very potent activity (capable of reducing bacterial load from 1×10^6 CFU/ml to […] CFU/ml, a 5 log reduction). […] Much time and experimental effort was spent in the laboratory exploring purification techniques, but yield and purity could not be increased beyond about 70%. […] Finally, after extensive additional experimentation, another solubilizing moiety was added to the peptides, and this addition increased half-life, solubility, and purity of the peptides. […]

[3] = test system: mouse cornea; assay: In vivo model of corneal wound healing (corneal epithelial abrasion)
Protocol: The in vivo model of wound healing was carried out using a disposable biopsy punch (2 mm, Miltex, York, Pa.) to demarcate the mouse cornea and a 0.5 mm burr using the AlgerBrush II (The Alger Company, Inc., Lago Vista, Tex.) to remove the corneal epithelium. The corneal abrasions were treated at 0 and 16 hours with peptide 95-122 (10^−5 M), peptide 120-146WH (10^−6 M and 10^−8M), peptide 120-146WR ((10^−6 M and 10^−8M), or vehicle control (0.9% sodium chloride, pH 5.5, Baxter, Deerfield, Ill.). Corneal abrasions were visualized using sterile fluorescein sodium ophthalmic strips USP (Fluorets®, Chauvin Laboratory, Aubenas, France) dampened with sterile PBS. Images were taken at 0, 16, and 24 hours immediately following fluorescein staining.
Mice were anesthetized using ketamine (100 mg/kg; Bionichepharma, LLC., St. Lake Forrest, Ill.) and xylazine ([…]; Rompun; Bayer Corp., Shawnee Mission, Kans.), and the right cornea was wounded as follows. A disposable biopsy punch (2 mm, Miltex, York, Pa.) was used to demarcate the mouse cornea. The corneal epithelium was carefully removed within the 2 mm demarcated area with a 0.5 mm burr using the AlgerBrush II (The Alger Company, Inc., Lago Vista, Tex.). The corneal abrasions were treated at 0 and 16 hours with HB-EGF (250 ng/ml), rCAP37 (250 ng/ml), or vehicle control (0.9% sodium chloride, pH 5.5, Baxter, Deerfield, Ill.). Corneal abrasions were visualized using sterile fluorescein sodium ophthalmic strips USP (FLUORETS®, Chauvin Laboratory, Aubenas, France) dampened with sterile PBS. Images were taken at 0, 16, 24, and 48 hours immediately following fluorescein staining using a surgical microscope equipped with a camera (Carl Zeiss OPMI VISU 140, Carl Zeiss Surgical, Inc., Oberkochen, Germany). The areas of the open wound were quantitated using ImageJ software (US National Institutes of Health), and the results were reported as the percentage of wound closure.
Whole mouse eyes were collected for histology at 0, 6, 16, 24, and 48 hours post wounding and were immediately placed in Prefer fixative (Anatech LTD., Battle Creek, Mich.) for 20 minutes before being transferred to 70% ethanol. Tissues were paraffin-embedded and cut at a thickness of 5 μm, mounted on SUPERFROSTPLUS® slides (Statlab Medical Products, Lewisville, Tex.), and subsequently deparaffinized, rehydrated, and washed in deionized water. Sections were stained with hematoxylin (Leica Microsystems, Buffalo Grove, Ill.) and rinsed twice in deionized water before being washed in Blue Buffer (Leica Microsystems). The sections were finally washed in deionized water and 95% ethanol prior to being counterstained with eosin (Leica Microsystems). Sections were dehydrated in ethanol and cleared in xylene.

[4] = test system: human corneal epithelial cell (HCEC); assay: HCEC chemotaxis, modified Boyden chemotaxis chamber assay; assay type: cell-based; settings: 120-146QH at 10^−4, 10^−6, 10^−8, 10^−10 M; 120-146QR at 10^−6, 10^−8 M; HB-EGF 50 ng/ml; rCAP37 250 ng/ml; 3 hours at 37° C
Protocol: The effect of buffer control (0.1% BSA in Gey's buffer), heparin binding-epidermal growth factor (HB-EGF, 50 ng/ml), recombinant CAP37 (rCAP37, 250 ng/ml), 120-146QH (10^−12M, 10^−10 M, 10^−8 M, 10^−6M, and 10^−4M,) and 120-146QR (10^−10M, 10^−8M, 10^−6M, and 10^−4M) on HCEC chemotaxis was determined by the modified Boyden chemotaxis chamber method. HCEC chemotaxis was measured in response to HB-EGF, rCAP37, and peptides 120-146QH (SEQ ID NO:29) and 120-146QR (SEQ ID NO:28) after incubation for 3 hours at 37° C. Chemotaxis is expressed as a percent migration. The buffer control (no chemoattractant) is arbitrarily assigned the value of 100% migration. Data are expressed as means±SEM and are calculated from 6 observations for each test point. **P<0.01 by Wilcoxon signed-rank test as compared to controls.
Chemotaxis assays were performed using the modified Boyden chemotaxis chamber assay. Peptide 120-146QH was used at 10^−4 M, 10^−6 M, 10^−8 M, 10^−10 M, and 10^−12 M, and peptide 120-146QR was used at 10^−4 M, 10^−6M, 10^−8M, and 10^−10 M.

[5] = test system: HCEC monolayers; assay: In vitro scratch assay of wound closure in HCEC monolayers; assay type: cell-based, human
Protocol: An in vitro scratch assay was used in order to determine the ability of rCAP37 to facilitate corneal wound healing. Human corneal epithelial cells were cultured as described above until they reached a confluent monolayer. Each monolayer was scratched using a 10 μl pipette tip to create two perpendicular lines. Monolayers were treated with heparin binding-epidermal growth factor (HB-EGF, 250 ng/ml; Becton Dickinson), rCAP37 (25-2000 ng/ml), or basal KSFM (Gibco). Wound closure was monitored at 0, 18, 24, and 48 hours utilizing a camera-equipped inverted microscope (TE2000-E; Nikon, Melville, N.Y.). Time-lapse images of in vitro wound closure were obtained using a camera-equipped inverted microscope (TE2000-E; Nikon) from 0-18 hours. HCEC monolayers were treated with HB-EGF, rCAP37, and basal KSFM as described above. The width of each scratch was quantitated using ImageJ software (US National Institutes of Health, Bethesda, Md.). Results are presented as the percentage of wound closure.

C[C@H]1COc2c(N3CCN(C)CC3)c(F)cc3c(=O)c(C(=O)O)cn1c23 [Levofloxacin, reference compound]
MIC of Levofloxacin in combination with peptide ([1]; in the presence of 3.04 μg/ml of the peptide BCC02-5RMP): 3.5 µg/mL

NQGRHFCGGALIHARFVMTAASCFQ (listed as Homo sapiens) [CAP3720-44]
solubility [2]: relatively insoluble

NQGRHFCGGALIHARFVMTAASSFQ [CAP3720-44ser42]
solubility [2]: relatively insoluble

NQGRHFSGGALIHARFVMTAASCFQ [CAP3720-44ser26]
solubility [2]: relatively insoluble

CO/N=C(\C(=O)N[C@@H]1C(=O)N2C(C(=O)O)=C(COC(C)=O)CS[C@H]12)c1csc(N)n1 [Cefotaxime, reference compound]
bactericidal impact of antibiotic alone ([1]; 2.8 μg/ml): very little bactericidal impact

B1: heparin binding-epidermal growth factor (protein, UniProt Q99075 63-148, looked up)
Heparin-binding EGF-like …: DLQEADLDLLRVTLSSKPQALATPNKEEHGKRKKKGKGLGKKRDPCLRKYKDFCIHGECKYVKELRAPSCICHPGYHGERCHGLSL
notes: positive control growth factor
closure of wounds compared to the buffer control ([3]; 250 ng/ml at 0 and 16 hours): significantly higher
migration of HCECs vs buffer control [4]: significant increase in migration
time to complete closure of scratch wounds ([5]; 250 ng/ml): ≤ 24 h
percentage wound closure ([5]; 250 ng/ml, at 18 hours): ~88%

B2: CAP37: cationic antimicrobial protein of Mr 37 kDa; recombinant CAP37 produced in HEK 293 cells (protein)
chain: IVGGRKARPRQFPFLASIQNQGRHFCGGALIHARFVMTAASCFQSQNPGVSTVVLGAYDLRRRERQSRQTFSISSMSENGYDPQQNLNDLMLLQLDREANLTSSVTILPLPLQNATVEAGTRCQVAGWGSQRSGGRLSRFPRFVNVTVTPEDQCRPNNVCTGVLTRRGGICNGDGGTPLVCEGLAHGVASFSLGPCGRGPDFFTRVALFRDWIDGVLNNPGP
reduction of wound size (wound closure) ([3]; 16 hours, 250 ng/ml topical at 0 and 16 hours): 71%
re-epithelialization (H&E histology) vs vehicle-treated wounds ([3]; 24 hours, 250 ng/ml): greatly accelerated
wound closure ([3]; 24 hours, 250 ng/ml topical at 0 and 16 hours): 83%
structural integrity of epithelium (H&E histology) ([3]; 48 hours, 250 ng/ml): regained full integrity
migration of HCECs vs buffer control [4]: significant increase in migration
percentage wound closure ([5]; 250 ng/ml, at 18 hours): ~71%
percentage wound closure ([5]; 500 ng/ml): approximately 62%
